Data on two molecules can be found in patent US20090298197, “SERS-BASED METHODS FOR DETECTION OF BIOAGENTS” (OXONICA MATERIALS INC., published 2009).

For data set [1], the target named is T1, alpha-thrombin (UniProt P00734;P00734 P00734:328-363,P00734:364-622). Description: fluorescence restored on nanowire beacon with 10 ug/ml thrombin (form not specified), Tris-HCl, 30 min, room temperature.
The target in another data set is ovalbumin (UniProt P01012 P01012:2-386). In words: negative control, little signal; nanowire fluorescence beacon. Particulars: label: TAMRA 3'; no hairpin. Here is the method:
Probe assembly was performed as for standard molecular beacons. The assay was performed by diluted the thrombin protein with Tris-HCl buffer to attain desired concentration. Then 50 μl thrombin protein solution was mixed with 3 μl nanowire assembled aptamer probe in a microfuge tube and incubated for 30 min, with rotation at room temperature. The contents were centrifuged, washed with 0.1% Tween-20/PBS once and fluorescence images acquired using fluorescence microscope described above.
As expected no fluorescence was observed, due to the fluorescence quenching of the TAMRA by the nanowire. However, when the thrombin protein was added to the reaction by incubating 10 μg/ml thrombin with 3 μl nanowire-Apt1 assembled probes for 30 min, fluorescence was restored. An investigation into the effect of the hairpin in the beacons was carried out. […] This sequence was therefore used for subsequent experiments. […] When this experiment was repeated in 50% serum, the detection limit was again approximately 50 nM (FIG. 15B). These are very encouraging results. Finally, it is important to understand the specificity of the assay, in addition to the sensitivity. THR Apt 3 assembled nanowires were incubated with a pair of homologous proteins, α Thrombin and β Thrombin, and with ovalbumin as a negative control, and a blank (labeled control). […]

For data set [2], the target named is T1, alpha-thrombin. Description: nanowire fluorescence beacon; highest signal to noise; thrombin detected at about 50 nM in buffer and in 50% serum (detection limit, not Kd); greatest signal wi.

Sequence of ovalbumin (P01012 2-386, one chain of several): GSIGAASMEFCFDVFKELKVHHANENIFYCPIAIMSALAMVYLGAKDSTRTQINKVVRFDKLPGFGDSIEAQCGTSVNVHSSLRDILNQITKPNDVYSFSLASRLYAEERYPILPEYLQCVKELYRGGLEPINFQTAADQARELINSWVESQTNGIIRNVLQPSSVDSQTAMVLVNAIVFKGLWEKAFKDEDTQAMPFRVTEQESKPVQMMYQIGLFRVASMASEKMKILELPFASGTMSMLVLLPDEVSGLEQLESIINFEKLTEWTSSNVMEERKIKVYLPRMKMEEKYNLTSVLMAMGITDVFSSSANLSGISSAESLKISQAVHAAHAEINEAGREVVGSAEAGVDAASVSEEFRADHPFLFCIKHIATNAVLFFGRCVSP

As for CCAACGGTTGGTGTGGTTGG (ssDNA, 5' thiol-(CH2)6, 3' (CH2)7-TAMRA, assembled on Au/Ag nanowires) [THR Apt1], in the data set with alpha-thrombin [1], the binding result is listed as “binds”.

On to TGGTTGGTGTGGTTGG (ssDNA, 5' thiol-(CH2)6, 3' (CH2)7-TAMRA, assembled on Au/Ag nanowires) [THR Apt3], for which the figures for the binding result with ovalbumin and with alpha-thrombin [2] were “no binding” and “binds”, respectively.
